Publication PMC3870051 (Heart rhythm : the official journal of the Heart Rhythm …, 2013)

Molecular target: NaV1.5 C-terminal domain (CTD), purified recombinant (UniProt Q14524 1773-1940)
Assay: ITC

Sequence of NaV1.5 C-terminal domain (CTD), purified recombinant (Q14524 1773-1940): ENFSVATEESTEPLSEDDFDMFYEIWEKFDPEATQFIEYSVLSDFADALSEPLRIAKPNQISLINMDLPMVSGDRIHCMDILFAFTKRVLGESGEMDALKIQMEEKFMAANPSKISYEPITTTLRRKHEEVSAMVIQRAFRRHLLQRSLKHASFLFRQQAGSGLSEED

B1: Q7R-FGF12 (human FGF12-B with Q7R), purified recombinant (natural protein, UniProt P61328-2 1-181, looked up)
chain: MESKEPRLKGIVTRLFSQQGYFLQMHPDGTIDGTKDENSDYTLFNLIPVGLRVVAIQGVKASLYVAMNGEGYLYSSDVFTPECKFKESVFENYYVIYSSTLYRQQESGRAWFLGLNKEGQIMKGNRVKKTKPSSHFVPKPIEVCMYREPSLHEIGEKQGRSRKSSGTPTMNGGKVVNQDST
Q: With B1 as the binder, how does the “fold reduction in binding affinity against WT-FGF12” value read?
A: Its value is 2 fold.
